Assay results: patent US5442053A, “Salts and mixtures of hyaluronic acid with pharmaceutically active substances, pharmaceutical compositions containing the same and methods for administration of such compositions” (Fidia, S.p.A., priority 1983, dated 1995)

System: corneal epithelium
Assay: Healing activity of EGF vehicled in hyaluronic acid, epithelial lesion of rabbit cornea
Type: in vivo, rabbit (male albino New Zealand)
Details: for healing of lesions in the corneal epithelium: single eye
Method: The experiments were carried out on male albino New Zealand rabbits (average weight 1.8 kg). The animals, after a period of adaptation of about 5 days, underwent epithelial lesion of the cornea in suitable conditions of local anesthetic with Novesina (4%). The lesion consisted of a monocular scarification of a circular area in the optic zone effected by a concave glass cylinder (.phi. 3mm) with a sharp edge.
The animals were subdivided into groups, each group consisting of 5 animals, and subjected to pharmacological treatment by conjunctival instillation as follows:
Treatment was effected on the right eye (RE) by conjunctival instillation of 2 drops every 8 hours for 3 total administrations.
Healing of the corneal epithelium was evaluated by observation of the eye and photographic documentation with a slit lamp at various intervals after scarification: 0, 8 hours, 16 hours, 24 hours, 32 hours, 40 hours, and 48 hours.

B1: Epidermal growth factor (protein, UniProt P01133 23-1207, looked up)
Pro-epidermal growth factor: PQHWSCPEGTLAGNGNSTCVGPAPFLIFSHGNSIFRIDTEGTNYEQLVVDAGVSVIMDFHYNEKRIYWVDLERQLLQRVFLNGSRQERVCNIEKNVSGMAINWINEEVIWSNQQEGIITVTDMKGNNSHILLSALKYPANVAVDPVERFIFWSSEVAGSLYRADLDGVGVKALLETSEKITAVSLDVLDKRLFWIQYNREGSNSLICSCDYDGGSVHISKHPTQHNLFAMSLFGDRIFYSTWKMKTIWIANKHTGKDMVRINLHSSFVPLGELKVVHPLAQPKAEDDTWEPEQKLCKLRKGNCSSTVCGQDLQSHLCMCAEGYALSRDRKYCEDVNECAFWNHGCTLGCKNTPGSYYCTCPVGFVLLPDGKRCHQLVSCPRNVSECSHDCVLTSEGPLCFCPEGSVLERDGKTCSGCSSPDNGGCSQLCVPLSPVSWECDCFPGYDLQLDEKSCAASGPQPFLLFANSQDIRHMHFDGTDYGTLLSQQMGMVYALDHDPVENKIYFAHTALKWIERANMDGSQRERLIEEGVDVPEGLAVDWIGRRFYWTDRGKSLIGRSDLNGKRSKIITKENISQPRGIAVHPMAKRLFWTDTGINPRIESSSLQGLGRLVIASSDLIWPSGITIDFLTDKLYWCDAKQSVIEMANLDGSKRRRLTQNDVGHPFAVAVFEDYVWFSDWAMPSVMRVNKRTGKDRVRLQGSMLKPSSLVVVHPLAKPGADPCLYQNGGCEHICKKRLGTAWCSCREGFMKASDGKTCLALDGHQLLAGGEVDLKNQVTPLDILSKTRVSEDNITESQHMLVAEIMVSDQDDCAPVGCSMYARCISEGEDATCQCLKGFAGDGKLCSDIDECEMGVPVCPPASSKCINTEGGYVCRCSEGYQGDGIHCLDIDECQLGEHSCGENASCTNTEGGYTCMCAGRLSEPGLICPDSTPPPHLREDDHHYSVRNSDSECPLSHDGYCLHDGVCMYIEALDKYACNCVVGYIGERCQYRDLKWWELRHAGHGQQQKVIVVAVCVVVLVMLLLLSLWGAHYYRTQKLLSKNPKNPYEESSRDVRSRRPADTEDGMSSCPQPWFVVIKEHQDLKNGGQPVAGEDGQAADGSMQPTSWRQEPQLCGMGTEQGCWIPVSSDKGSCPQVMERSFHMPSYGTQTLEGGVEKPHSLLSANPLWQQRALDPPHQMELTQ
modifications: Pro-epidermal growth factor
notes: EGF (Epidermal growth factor), dissolved in saline (0.5 mg/5 ml)
healing of lesions in the corneal epithelium (0 hours after scarification): +
healing of lesions in the corneal epithelium (8 hours after scarification): +
healing of lesions in the corneal epithelium (16 hours after scarification): +
animals healed (24 hours after scarification): 4/5
healing of lesions in the corneal epithelium (24 hours after scarification): - and +
healing of lesions in the corneal epithelium (48 hours after scarification): -
